This is an account of results in the supplement of paper PMC9170038.

The test system of this series is MS2 coat protein. Put plainly: apparent KD of MS2 coat protein; designed switch direction (-1 OFF switch, 1 ON switch): 1; higher = weaker reporter binding. In a few lines:
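Normalised cluster fluorescence was curve-fitted, and each design's median over clusters is its apparent KD. Before this, SNAP-549-labelled MS2 coat protein was titrated from 0.7 or 1.5 nM, doubling to 3 µM, over RNA switches transcribed on Illumina chips by stalled E. coli RNA polymerase. Titrations had no input, 200 uM small-molecule ligand, or an oligonucleotide input, and steps lasted 0.8–1.5 h (lowest) to 10–20 min (highest).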

[1] abbreviates: input ligand: microRNA oligo, concentration not stated.
[2] abbreviates: Eterna round: R95, input ligand: FMN 200 uM.
The mark [3] stands for this setting: Eterna round: R95, input ligand: microRNA oligo, concentration not stated.
Setting [4] is: Eterna round: R95, input ligand: none.

Regarding “CGCUGUCACGCAGGAUAUGCAUUGGAUUACAAUGCAGAAGGGCGAUUACAUGAGGAUCACCCAUGUGUAGACAGUGAAGAAGAG [MOD JMF Solution 3] (Eterna round: R96, puzzle: Same State NG 1)”, the “apparent KD of MS2 coat protein” value is, setting by setting: (input ligand: FMN 200 uM) 0.0324 µM; under setting [1], 0.271 µM; (input ligand: none) 0.386 µM.
“ACUUGCUUUUUGCUCGUAUAUUGUCCGUUACAUGAGGAUCACCCAUGUGUGUAUUGUGUGUUGUUUUUGAUACGUGU [JR_SHM208A_Sub070] (puzzle: Sensor for hsa-mir-208a)”: the “apparent KD of MS2 coat protein” value was found to be 0.056 µM under setting [2], 0.0628 µM under setting [3] and 0.0742 µM under setting [4].
On to “GUGGAGGGUUGAGGAUAUUGAAUACAUAUGUUUAACAUGAGGAUCACCCAUGUGGGUUGCGGUAUCGAGAAGGUAGGUUGCUGG [salish99_SSNG2_r04_039] (Eterna round: R96, puzzle: Same State NG 2)”, for which the “apparent KD of MS2 coat protein” value runs as follows: (input ligand: FMN 200 uM) 0.0967 µM; under setting [1], 0.0452 µM; (input ligand: none) 0.0849 µM.
Take “UUCUCUUUUUAGAGACAAGCUUUUUGAUCACAUGAGGAUCACCCAUGUCUCGUCUUAUGAUCUACUUCGGUAGAUCU [BA Sensor hsa-mir-208a - 2 - 5] (puzzle: Sensor for hsa-mir-208a)”: the “apparent KD of MS2 coat protein” value worked out at 0.155 µM under setting [2], 0.0139 µM under setting [3] and 0.144 µM under setting [4].
Take “UCUUGGUUUUUGCUCGUUUUUUGUGUUGAACAUGAGGAUCACCCAUGUAUUGUACGGUCCGGUUUAGUAGUGGUCCA [JMF 44] (puzzle: Sensor for hsa-mir-208a)”: the “apparent KD of MS2 coat protein” value by setting is: under setting [2], 0.118 µM; under setting [3], 0.0928 µM; under setting [4], 0.144 µM.
On to “GUUACAUGAGGAUCACCCAUGUGUGUGUGGGAGUGAGUGGCUUAGGAUAUCUAUGAUUUUAGUUAAGAGAAGGAGGAUUGUUGU [SS-NG3-LRO06] (Eterna round: R96, puzzle: Same State NG 3)”, for which the “apparent KD of MS2 coat protein” value reads like this: (input ligand: FMN 200 uM) 0.365 µM; under setting [1], 0.322 µM; (input ligand: none) 0.38 µM.
Take “UUGCGGGUUUGAGGAUAUUGAGUACAUAUGUUUAACAUGAGGAUCACCCAUGUGGGUUGCGGUAUCGAGAAGGUAACUUACUAC [salish99_SSNG2_r04_806] (Eterna round: R96, puzzle: Same State NG 2)”: the “apparent KD of MS2 coat protein” value stood at 0.179 µM (input ligand: FMN 200 uM), 0.0689 µM under setting [1] and 0.11 µM (input ligand: none).
For “AAAGAACAUGAGGAUCACCCAUGUGGAAGAGGCACAGGAUAUCACCUCGCAAGUACGAGGUGAGAAGGGUGAUGAU [Araa] (puzzle: Same State 1)”, the “apparent KD of MS2 coat protein” value is 0.183 µM under setting [2], 0.154 µM under setting [3] and 0.426 µM under setting [4].
“AUAAAACAUGAGGAUCACCCAUGUCAACAAAGUCGAGGAUAUGGGCAAAUAAAAUAUGAACCAGAAGGCGAAUAAU [salish99_ss1_r3_019] (puzzle: Same State 1)”: the “apparent KD of MS2 coat protein” value under setting [2] turned out to be 0.0358 µM, the “apparent KD of MS2 coat protein” value under setting [3] came to 0.221 µM and the “apparent KD of MS2 coat protein” value under setting [4] is 0.31 µM.
For the sequence “AAAAUCGCGAUAGGAUAUGGGAAAGGAAGUGUACCAGAAGGAUCAGCGCCGACUGGACAUGAGGAUCACCCAUGUCGAGUCUUA [PowerStrip SSNG 1.2] (Eterna round: R96, puzzle: Same State NG 1)”, the “apparent KD of MS2 coat protein” value stood at 0.0422 µM (input ligand: FMN 200 uM), 0.0266 µM under setting [1] and 0.0805 µM (input ligand: none).
“UAAGUCAUGUAAGGAUAUGCAGCCGAAACGGCUGCAGAAGGUACUAUAAUUACAUGAGGAUCACCCAUGUUAUAAAAUUAAAAU [Mat - Same State NG 1 - JL mod - D79] (Eterna round: R96, puzzle: Same State NG 1)”: the “apparent KD of MS2 coat protein” value reads like this: (input ligand: FMN 200 uM) 0.0208 µM; under setting [1], 0.0311 µM; (input ligand: none) 0.0573 µM.
Consider “AAAAGAAACAUGUACCUGAGUACAUGAAAACAUGAGGAUCACCCAUGUAAUAAGCGGGUGGCUCGUCUUAUAAGAAA [JL pocket 27] (Eterna round: R96, puzzle: Sensor for hsa-mir-208a)”, for which the “apparent KD of MS2 coat protein” value by setting is: (input ligand: FMN 200 uM) 0.89 µM; under setting [1], 0.0704 µM; (input ligand: none) 0.715 µM.
“UUGAAGAACUAAGGAUAUUGAAUACAUAUGUUUAACAUGAGGAUCACCCAUGUGGGUUGCGGUAUCGAGAAGGUAGAUUACUAG [Mat - Same State NG 2 - JL mod - D10] (Eterna round: R96, puzzle: Same State NG 2)”: the “apparent KD of MS2 coat protein” value under setting [1] amounted to 0.0834 µM.
For the sequence “AUGAAGAAUUAAGGAUAUUGAUUACAUAUGUUUAACAUGAGGAUCACCCAUGUGGGUUGCGGUAUCGAGAAGGUAAAAUAAUAG [Mat - same State NG 2 - JL mod - D85] (Eterna round: R96, puzzle: Same State NG 2)”, the “apparent KD of MS2 coat protein” value turned out to be 0.187 µM (input ligand: FMN 200 uM), 0.123 µM under setting [1] and 0.158 µM (input ligand: none).
For the sequence “CCAAAGUACAAUUUAGAUCUACAUGAGGAUCACCCAUGUACUGAGGAUAUCAGCUCGAAUAGAGCUGAGAAGGCAGAAUUAAUU [SSNG3/4-A1] (Eterna round: R96, puzzle: Same State NG 3)”, the “apparent KD of MS2 coat protein” value is, setting by setting: (input ligand: FMN 200 uM) 0.155 µM; under setting [1], 0.155 µM; (input ligand: none) 0.317 µM.
In the case of “UUAAUUAAUUAAUUAUACAUGAGGAUCACCCAUGUAAGUGAUCAGGAUAUCAGCUCGUGUAGAGCUGAGAAGGGAUACAUGUAA [SSNG3/12-A4] (Eterna round: R96, puzzle: Same State NG 3)”, the “apparent KD of MS2 coat protein” value under setting [1] stood at 0.147 µM.
With “GUAGCAUACCGAGGAUAUUCAUAUAUACAUGAGGAUCACCCAUGUUAAAAUAGGCGAAAGCCUUGGGAGAAGGCGGAAUGCUAC [Xeonanis - 20 Mod67] (Eterna round: R96, puzzle: Same State NG 2)”, the “apparent KD of MS2 coat protein” value was 0.00945 µM (input ligand: FMN 200 uM), 0.0114 µM under setting [1] and 0.015 µM (input ligand: none).
On the same counts, the results for “UGGCUCAGACGAGGAUAUACGUGGUCACAUGAGGAUCACCCAUGUCUCGAGCUUCGGCUCGAGGCGUAGAAGGCGUCUGAGCCU [SSNG2/6-A3] (Eterna round: R96, puzzle: Same State NG 2)” are 0.112 µM, 0.133 µM and 0.151 µM.
For the sequence “CGAUGAUACUUAGGAAGAAGAGUUGAGGUACAUGAGGAUCACCCAUGUCGGAGCUUUUUGCUCGUCAUGAACAGGAA [JR_SHM208a_Sub007] (puzzle: Sensor for hsa-mir-208a)”, the “apparent KD of MS2 coat protein” value is, setting by setting: under setting [2], 0.0652 µM; under setting [3], 0.0348 µM; under setting [4], 0.0795 µM.
As for “GAUAAACAUGAGGAUCACCCAUGUAAUAAUAUGGGAGGAUAUCAGAAUGUAUGUAUGUAAUGAGAAGGCCUAAUAU [Mat - Same State 1 - Mod of Eli - D71] (puzzle: Same State 1)”, the “apparent KD of MS2 coat protein” value stood at 0.0618 µM under setting [2], 0.545 µM under setting [3] and 0.491 µM under setting [4].
Consider “AUACAUGAGGAUCACCCAUGUAAUUAAUUAAUUAAUAAGAUCUAGGAUAUCAGCUCGAUUAGAGCUGAGAAGGAGAUCACAUGU [SSNG3/21-B2] (Eterna round: R96, puzzle: Same State NG 3)”, for which, under setting [1], the “apparent KD of MS2 coat protein” value was 0.0168 µM.
As for “CGUCGUUUGAUAGGAUAUCGCUAUACAUGAGGAUCACCCAUGUUUACCACGCUGGUUUUUCUUUCCGAGAAGGAUUCUGAUGUU [salish99_SSNG02_r04_022] (Eterna round: R96, puzzle: Same State NG 2)”, the “apparent KD of MS2 coat protein” value by setting is: (input ligand: FMN 200 uM) 0.0309 µM; under setting [1], 0.0238 µM; (input ligand: none) 0.0335 µM.
On to “GCUACCAAUGAAGCCAACAUGAGGAUCACCCAUGUAUGUUGGUAGGAUAUCGUUUGCUUUGCAAACGAGAAGGGCUAAGGUAGC [JL SSNG3 1.26] (Eterna round: R96, puzzle: Same State NG 3)”, for which the “apparent KD of MS2 coat protein” value is 0.0422 µM (input ligand: FMN 200 uM), 0.0392 µM under setting [1] and 0.0426 µM (input ligand: none).
Consider “CUGGAAAACACAGGAUAUACCCGUGAAUCACGGGUAGAAGGGUGAAACAUGAGGAUCACCCAUGUUACCUCCCAAGGGAGGAUU [Zaleisge] (Eterna round: R96, puzzle: Same State NG 1)”, for which the “apparent KD of MS2 coat protein” value (input ligand: FMN 200 uM) is 0.432 µM, the “apparent KD of MS2 coat protein” value under setting [1] came to 0.518 µM and the “apparent KD of MS2 coat protein” value (input ligand: none) stood at 0.946 µM.
For the sequence “GUAGCAUACCGAGGAUAUUCAUAUUACAUGAGGAUCACCCAUGUUAGGCCACAUUAGUGGCCUUGGGAGAAGGCGGAAUGCUAC [Xeonanis - 20 Mod40] (Eterna round: R96, puzzle: Same State NG 2)”, the “apparent KD of MS2 coat protein” value (input ligand: FMN 200 uM) came out at 0.0146 µM, the “apparent KD of MS2 coat protein” value under setting [1] came to 0.0697 µM and the “apparent KD of MS2 coat protein” value (input ligand: none) was 0.104 µM.
In the case of “AAGUUACUAUCUCAGGAUAUCAUGUCAAAGACAUGAGGAUCACCCAUGUACCAGGAAACUGGUUAUGAGAAGGGAGAUAGUAACA [Mat - Same State 2 - Mod - D50] (puzzle: Same State 2)”, the “apparent KD of MS2 coat protein” value stood at 0.143 µM under setting [2], 0.134 µM under setting [3] and 1.4 µM under setting [4].
“GGAGCCGGCACGGAGGAUAUUCAUAUUAAAACAUGAGGAUCACCCAUGUAGGCCAGAAGGCCUUGGGAGAAGGCCGAUCGGCUCG [Xeonanis - 15] (Eterna round: R96, puzzle: Same State 2)”: the “apparent KD of MS2 coat protein” value by setting is: (input ligand: FMN 200 uM) 0.0212 µM; under setting [1], 0.258 µM; (input ligand: none) 0.333 µM.
